± gives the standard deviation of the averaged measurements.
B1: library; a variant is named by its letters at N, in order (parent)
chain: GCUGUCACCGGUGCUUGGUACGUUAUAUUCAGCCGGUCUGAUGAGUCUNNNNNNAGACGAAACAGC

Key:
(6R,S)-folinic acid [1] = variants of: B1; experiment: FACS-Seq fitted mean relative fluorescence mCherry/BFP without ligand (log10 relative fluorescence); HEK293T overexpressing SLC46A1; higher = higher reporter protein expression; settings: without (6R,S)-folinic acid; ligand present: no
Method in brief: (§1)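 HEK293T libraries were lentivirally transduced with an mCherry reporter carrying the ribozyme switch and an EF1α-BFP marker, enriched, and incubated for 48 h with or without ligand before sorting into 6 bins by mCherry/BFP. Genomic DNA from each bin was PCR-amplified, barcoded and sequenced on MiSeq. Fluorescence is the fitted normal mean of the bin counts. The fit used log10(mCherry/BFP), and means were scaled to five spiked-in control ribozymes.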

(6R,S)-folinic acid [2] = variants of: B1; experiment: normalized RNA/DNA level without ligand (relative to sTRSVctl = 100) (log10 (% of sTRSVctl)); HEK293T overexpressing SLC46A1; higher = less ribozyme self-cleavage, higher mRNA level; settings: without (6R,S)-folinic acid; ligand present: no
Method in brief: (§2)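 Total RNA, extracted with EDTA 72 h after HEK293T cells were transfected with 4 µg per 6-well well of reporter-linked ribozyme switch library plasmids, was reverse-transcribed, amplified, barcoded and sequenced. Ligand, if used, was added 1 h before transfection. RNA level was derived from RNA reads divided by DNA reads and normalized to a spiked-in non-cleaving sequence or to the top sequences. This was multiplied by 100 and log10-transformed, with the top set of 25 sequences and a ≥100 DNA read minimum.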

(6R,S)-folinic acid [3] = variants of: B1; experiment: FACS-Seq fitted mean relative fluorescence mCherry/BFP with ligand (log10 relative fluorescence); HEK293T overexpressing SLC46A1; ligand concentration (+) FACS-Seq: 6 mM; higher = higher reporter protein expression; settings: with (6R,S)-folinic acid; ligand present: yes
Method in brief: as §1

(6R,S)-folinic acid [4] = variants of: B1; experiment: normalized RNA/DNA level with ligand (relative to sTRSVctl = 100) (log10 (% of sTRSVctl)); HEK293T overexpressing SLC46A1; ligand concentration (+) RNA-Seq: 6 mM; higher = less ribozyme self-cleavage, higher mRNA level; settings: with (6R,S)-folinic acid; ligand present: yes
Method in brief: as §2

Variant | FACS-Seq fitted mean (log10) ((6R,S)-folinic acid [1]) | normalized RNA/DNA level without ligand (log10) ((6R,S)-folinic acid [2]) | FACS-Seq fitted mean (log10) ((6R,S)-folinic acid [3]) | normalized RNA/DNA level with ligand (log10) ((6R,S)-folinic acid [4])
CUGAGA | -0.345 ± 0.055 | 1.985 ± 0.0047 | -0.472 ± 0.062 | 1.99 ± 0.035
AUGCGA | 0.422 ± 0.019 | 1.979 ± 0.00081 | 0.569 ± 0.15 | 2.01 ± 0.035
AUGCGU | 0.523 ± 0.16 | 1.951 ± 0.016 | 0.63 ± 0.3 | 1.99 ± 0.031
AUGCGG | 0.0258 ± 0.11 | 1.939 ± 0.013 | 0.185 ± 0.22 | 2.02 ± 0.043
GUAGCU | 0.643 ± 0.11 | 2.009 ± 0.01 | 0.287 ± 0.14 | 1.998 ± 0.0026
GUGACC | 0.7143 ± 0.0036 | 2.03 ± 0.0039 | 0.585 ± 0.22 | 2.02 ± 0.028
GUGACA | 0.277 ± 0.2 | 1.989 ± 0.003 | 0.446 ± 0.1 | 1.99 ± 0.05
CUGCAG | 0.542 ± 0.11 | 1.91 ± 0.021 | 0.679 ± 0.4 | 1.977 ± 0.0074
AUAGGU | 0.477 ± 0.19 | 1.87 ± 0.023 | 0.695 ± 0.3 | 2.01 ± 0.047
AUAGGG | -0.255 ± 0.066 | 1.599 ± 0.0044 | 0.286 ± 0.019 | 1.92 ± 0.025
AUAGGC | 0.336 ± 0.054 | 2.013 ± 0.012 | 0.59 ± 0.1 | 2.047 ± 0.016
GUCCCC | -0.921 ± 0.05 | 2.022 ± 0.014 | -1.94 ± 0.26 | 1.995 ± 0.0047
AUGACU | 0.261 ± 0.032 | 2.01 ± 0.025 | 0.313 ± 0.27 | 2.02 ± 0.03
AUGACA | 0.187 ± 0.069 | 1.987 ± 0.0094 | 0.323 ± 0.037 | 2 ± 0.032
AUGACG | 0.318 ± 0.062 | 1.941 ± 0.0037 | 0.394 ± 0.14 | 2.02 ± 0.022
GUAUGC | 0.271 ± 0.067 | 1.891 ± 0.015 | 0.404 ± 0.15 | 2 ± 0.03
CUAUGU | 0.286 ± 0.071 | 2.01 ± 0.023 | 0.152 ± 0.23 | 2.023 ± 0.014
AUAGCC | 0.385 ± 0.019 | 2.036 ± 0.0053 | 0.591 ± 0.43 | 2.03 ± 0.051

Variant | FACS-Seq fitted mean (log10) ((6R,S)-folinic acid [1]) | normalized RNA/DNA level without ligand (log10) ((6R,S)-folinic acid [2]) | FACS-Seq fitted mean (log10) ((6R,S)-folinic acid [3]) | normalized RNA/DNA level with ligand (log10) ((6R,S)-folinic acid [4])
AUAGCG | 0.172 ± 0.0027 | 1.664 ± 0.015 | 0.461 ± 0.046 | 1.96 ± 0.045
AUAGCA | 0.356 ± 0.058 | 1.9776 ± 0.00078 | 0.516 ± 0.016 | 2.03 ± 0.028
AUCGAG | 0.076 ± 0.01 | 1.813 ± 0.017 | 0.217 ± 0.22 | 2 ± 0.032
AUCGAC | 0.0463 ± 0.0065 | 2.041 ± 0.0079 | 0.0476 ± 0.024 | 2.01 ± 0.03
UUCAUG | 0.548 ± 0.083 | 1.86 ± 0.014 | 0.703 ± 0.25 | 1.97 ± 0.067
UUCCUG | 0.284 ± 0.092 | 1.96 ± 0.027 | 0.493 ± 0.079 | 2.03 ± 0.024
AUCUUG | 0.284 ± 0.023 | 1.952 ± 0.0043 | 0.288 ± 0.16 | 2.01 ± 0.028
AUCUUA | 0.327 ± 0.012 | 2.042 ± 0.0064 | 0.337 ± 0.14 | 2.03 ± 0.043
UUCAAU | 0.465 ± 0.017 | 2.004 ± 0.013 | 0.748 ± 0.3 | 1.98 ± 0.052
UUCAAG | 0.372 ± 0.12 | 1.85 ± 0.014 | 0.562 ± 0.035 | 2.01 ± 0.034
UUCAAA | 0.198 ± 0.18 | 1.972 ± 0.0074 | 0.0558 ± 0.029 | 2.009 ± 0.019
GUCCGG | -0.054 ± 0.18 | 2.042 ± 0.011 | -0.0351 ± 0.41 | 2.05 ± 0.063
GUCCGA | 0.497 ± 0.025 | 2.017 ± 0.0041 | 0.383 ± 0.061 | 2.007 ± 0.0092
AUGAAU | 0.232 ± 0.017 | 1.929 ± 0.013 | 0.0739 ± 0.05 | 2 ± 0.022
AUGAAG | 0.432 ± 0.049 | 1.836 ± 0.0092 | 0.578 ± 0.14 | 1.99 ± 0.048
AUGAAA | 0.535 ± 0.016 | 1.944 ± 0.0099 | 0.656 ± 0.15 | 1.98 ± 0.033
UUCUGC | 0.411 ± 0.14 | 2.049 ± 0.02 | 0.336 ± 0.038 | 2.04 ± 0.052
UUCUGG | 0.429 ± 0.029 | 1.887 ± 0.0036 | 0.696 ± 0.12 | 2.03 ± 0.037

— the supplement of paper PMC6757056
